Source: article PMC4086275, “Cryo-EM structure of the Plasmodium falciparum 80S ribosome bound to the anti-protozoan drug emetine” (eLife, 2014)

Target: T1, eL8, ribosomal protein of the Pf60S subunit (P. falciparum (3D7 strain), UniProt Q8ILL2 1-283)
T1 construct: eL8 of the P. falciparum 3D7 cytoplasmic ribosome; total number of residues 283; built residues 40-46, 54-131, 147-283; extensions compared to human 11-24 and 279-283; Native protein as part of the whole 80S ribosome; also called Q8ILL2_PLAF7; PF3D7_1424400; source: endogenous, in Pf80S ribosomes purified from P. falciparum 3D7 parasites (sucrose cushion, 10-40% sucrose gradient)
T1 sequence (looked up): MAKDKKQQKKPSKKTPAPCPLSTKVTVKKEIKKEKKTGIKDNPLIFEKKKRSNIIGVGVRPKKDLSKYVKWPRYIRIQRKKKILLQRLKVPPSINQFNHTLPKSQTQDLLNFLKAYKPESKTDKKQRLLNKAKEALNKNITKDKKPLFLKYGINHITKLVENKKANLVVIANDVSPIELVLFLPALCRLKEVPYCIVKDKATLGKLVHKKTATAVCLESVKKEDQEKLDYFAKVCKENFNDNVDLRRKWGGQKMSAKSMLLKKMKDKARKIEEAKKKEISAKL
Experiment: cryo-EM structure; native Pf80S ribosome purified from parasites, 160 nM, incubated with 1 mM emetine for 15 min at 25°C in 20 mM Hepes pH 7.4, 40 mM KCH3COO, 10 mM NH4CH3COO, 10 mM Mg(CH3COO)2, 5 mM 2-mercaptoethanol; 3.2 Å overall; the two proteins are members of the co-purified ribosome
Details: both partners purified

B1: eS1, ribosomal protein of the Pf40S subunit (natural protein, P. falciparum (3D7 strain), UniProt O97313 1-262, looked up)
chain: MAVGKNKRTSKGKKGGKKKVTDVFTKKEWYDLKAPKMFLVRNFGKTLVTKTIGKKLATDSLKGRIYEVNLADLNNDEDQAHKKIKLSCDHIINRDCYTDFCGLSITRDKLCSLIRKGYTLIEGHTDVKTLDNYHLRMFCIAFTKKRQNQTKSTCYAQTSQIKKIRKKMVDIMTAEASKVLLKDLVKKFIPESIGKEIEKQCKKIYPLQNVLIRKVKILKRPKLDISKLMELHTDPKEESGKNVNALPESKEATNILTAELKH
notes: eS1 of the P. falciparum 3D7 cytoplasmic ribosome; total number of residues 262; built residues 24-233; extension compared to human 245-262; Native protein as part of the whole 80S ribosome; also called PF3D7_0322900; source: endogenous, in Pf80S ribosomes purified from P. falciparum 3D7 parasites (sucrose cushion, 10-40% sucrose gradient)
  binding result: binds
